Two substances from publication PMC4429956 can be followed below.

What all share (test): SPR
One test concerns the target PI(4,5)P2. Particulars: parent: est. 240; read off a plot.
A further test concerns the target PI5P. The conditions noted are these: parent: est. 460; read off a plot.
The next test has as its target PI3P. The conditions noted are these: parent: est. 370; read off a plot.
Test [1] deals with histone H3 peptide trimethylated at lysine 4. The conditions noted are these: parent: est. 490; read off a plot.

As to “GST-TAF3 PHD finger, wild type D890; W891”, the response amounted to 120 RU in the test with PI(4,5)P2, 400 RU with PI5P and 270 RU with PI3P.

As to “GST-TAF3 PHD finger, wild type K922; K923; K925; K926; R927; K928”, the response in test [1] was 570 RU.
